Target: murine protein S (mouse) (UniProt Q08761)
Assay: cell-based or functional assay

Chain of UniProt Q08761 (Q08761 42-675 limits assumed): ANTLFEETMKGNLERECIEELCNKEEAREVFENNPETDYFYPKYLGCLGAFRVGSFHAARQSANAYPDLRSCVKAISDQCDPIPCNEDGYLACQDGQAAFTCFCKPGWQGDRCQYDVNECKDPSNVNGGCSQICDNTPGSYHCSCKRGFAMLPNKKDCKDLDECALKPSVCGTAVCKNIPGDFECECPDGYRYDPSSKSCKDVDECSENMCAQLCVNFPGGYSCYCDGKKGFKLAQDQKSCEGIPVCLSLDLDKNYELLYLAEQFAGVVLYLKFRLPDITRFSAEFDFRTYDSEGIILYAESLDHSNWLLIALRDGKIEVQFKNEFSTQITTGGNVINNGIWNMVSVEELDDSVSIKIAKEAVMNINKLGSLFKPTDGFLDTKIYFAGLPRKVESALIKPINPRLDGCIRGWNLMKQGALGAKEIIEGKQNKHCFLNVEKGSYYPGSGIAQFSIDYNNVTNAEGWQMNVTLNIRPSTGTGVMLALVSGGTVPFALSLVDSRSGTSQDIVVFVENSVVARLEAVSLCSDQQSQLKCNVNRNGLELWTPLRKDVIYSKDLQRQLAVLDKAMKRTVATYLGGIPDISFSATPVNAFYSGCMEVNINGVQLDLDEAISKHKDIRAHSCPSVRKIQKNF

Substance	reduction of ETP in Ca2+ ionophore-activated PRP of WT mice at 8 nM APC [%]
wild type recombinant mouse APC (wt-rmAPC) (from UniProt P33587 42-460)	90
mutated recombinant mouse APC (rmAPC L38D) (from UniProt P33587 42-460)	30

— US11723913
